Assay results taken from US4532212A, “Process for the dissolution of peptides in non-aqueous and mixed non-aqueous/aqueous systems” (Shell Oil Company, priority 1983, dated 1985).
Entries after “also recorded” stand apart in the source; their conditions may differ.

How the values were obtained:
Assay type in all cases: physicochemical
[1] = Dissolution of peptides/proteins in organic solvents using crown ethers and cryptands; settings: in words
Experimental: ^(a) Protein concentration was in the range 0.05-0.8 mM depending on
protein (i.e. cytochrome c, concentration was 0.8 mM, whereas, myoglobin
concentrtion was 0.1 mM). In a typical experiment, small portions of CE
(ca 2.0 mg, 7.6 × 10^-3 mmoles) were added to a suspension of
protein/peptide (5 mg) in methanol (2 ml) at 4-25° C. with stirrin
until the suspension dissolved.

[2] = Protein separation with crown ether/methanol: iso-electric focusing of fractions; settings: 18-crown-6 in methanol
Experimental: Thus mixtures of cytochrome c and α-chymotrypsin (10 mg each, 8.1×10^-4 and 4×10^-4 m.mole, respectively) were treated with 18-crown-6 (28 mg, 0.11 m.mole) in methanol (2 ml). The red solution was filtered from undissolved protein (α-chymotrypsin) and dialysed against water, then buffer (Tris, pH 7.5, 0.10 M). Both filtrate and filtered protein fractions were examined using isoelectric focusing in order to establish the purity of the separations (results shown in Table 2).
Mixtures of cytochrome c, BSA and α-chymotrypsin (10 mg each, 8,1×10^-4, 1.4×10^-4 and 4×10^-4 m.mole respectively) were treated with 18-crown-6 (50 mg, 0.19 m.mole) in methanol (2 ml) and the resulting red solution was filtered and then dialysed against water then buffer (Tris, pH 7.5, 0.01 M) to remove crown ether and methanol.

[3] = Protein crystallisation from methanol/18-crown-6/(NH4)2SO4; settings: crystalline composite from methanol/18-crown-6/(NH4)2SO4
Experimental: The solubilised protein solutions were stored at 4° C. within an outer tube containing ethyl acetate as precipitating co-solvent.

[4] = mixture cytochrome c + BSA + α-chymotrypsin

| Substance | Solubility in methanol with crown ether [1] | Iso-electric focusing results, pHI [2, 4] | Iso-electric focusing results, pHI ([2]; mixture cytochrome c + α-chymotrypsin) | Circular dichroism / UV/visible spectroscopy of crystalline material (protein integrity) [3] |
| --- | --- | --- | --- | --- |
| Cytochrome c: Cytochrome c from horse heart (Type III, from Sigma Chemical Co.), 104 residues | readily dissolves; also recorded: dissolves in methanol at a lower crown ether concentration than BSA | 9.35 | 9.35 | intact protein present |
| Bovine serum albumin (BSA): bovine serum albumin, 513 amino acid residues as printed | – | 5.5-6.0 | – | – |
